Experimental data from a protein production outcome set (Wang et al. 2014).

Test: label from the status in PepcDB records

Sequence	protein production
MINGNTSGLKEYILENLDKLYSTKIEKGKIINQEIVDYISEISNKINREINVAIDRNGNIIDISIGDSSTVNLPVIPVYDKKLSGVRIIHTHPSGNPHLSSVDISALIKLKLDCIVSIGVSEEGVTGYEVAICSIVNDELTYDRTLLENLDDFDYLEEIKEVEENLRKRNITEDDKEYALLIGIDKEEYLDELEELASACDVKVVGRFFQKRSKPDPLFLIGSGKIQELALTRQVRKVNLLIFDEELSGLQLKMIEEVTGCKVIDRTTLILEIFARRARTREAKLQVELAQLKYRSNRLIGFGVTMSRLGGGVGTKGPGEKKLEIDRRVIKKTIAYLNNELENIKKIRNTQRSKREDSGMPRVSLVGYTNVGKSTLRNVLVDMYQNDKTLKKEEVLSQDMLFATLDTTTRTIELKDKRIVSLTDTVGFIQKLPHDLVESFKSTLEEVIFSDLIIHVADISSKNVIEQIDAVEDVLEELNCLDKTKILLLNKIDNVTKDNSFPLMEKKIEEIKAKYSNYQILIISAKNRFNIDELMELIKKNLIVKTYNCKLLIPYVNTEIAARVHRNTIVKSESFVDEGIILEVVMNEKEYNKFKDFIFN	failed
MINIRSFRDLLRLFFIFKREVKITVLVTFIIIVLGAFLLPNRFESTALLLVKPGRDTSTLPIEIADRQAVVIPSAQRDPIIDEERILGGEPIARKVAEKYLDDLSRQPQPSGALATLKNAVKGAVEGIVDLLRGALQLVGLVEKQTPVERLTERMLKSFSVTHAAGSSVMEVSFTWNDPKVAQTVVKSWIEQYQQERAQTLGRKSLYAFYETESGATNQRILGYKKQIADYLNQLGAVSIEERLNDISRNLNNLKGEHLNTTRAVASTRSGLETIQKQLNSMKKEISIGRQMSLNPDRQDLQQRINAKQIERQEMLRTFKEGAPPVRAMDAAIANLQALLKSESGTVQRSENLAPNPVYTRLQNSFADQQASLSRLQTQAAQQETQLLKLEQERRQALAVEPELARLQRELSAAEKSFALYSDSTEKARIDRELDQSQISNIAVIEEATFKPSRVFPKSLSMLLAAIPLSLAVGLLALYFFYLLDQRIHDGDQIEERFGVKVWTSLQDLDSHLPQRNSAFTASLYRLYGILPLKQVALQGLVIGLTSARRGEGVSFVTAHLRDLLQERGHVVRVNGAPNAVPGEIVLLEASGFFSNQEAFVSLREADLIALIVEAETTTVPVLQNALSILTTAFKRVDGIIINRRRFGIPENVLNFLARIRSPH	failed
MINLELFKEFLLNLIKDYGYFGIFLVGFSEPIFQPFPTEIFIIAGILLGLDWKLVWLISTIACNFGAVVTYYLAKKYGEKLMLKLFDEEKIKKGSHYLKKWGILGVIIASFTPIPFEVICWVCGSFEMPFERYMIAVFLSRLIRHGMVILPFVLKDHIHF	failed
MINMTRKLYYEDAYLKEAKGRVLEIRDNAILLDQTIFYPTGGGQPHDRGTINGVEVLDVYKDEEGNVWHVVKEPEKFKVGDEVELKIDWDYRYKLMRIHTGLHLLEHVLNEVLGEGNWQLVGSGMSVEKGRYDIAYPENLNKYKEQIISLFNKYVDEGGEVKIWWEGDRRYTQIRDFEVIPCGGTHVKDIKEIGHIKKLKRSSIGRGKQRLEMWLE	not failed
MIPFDYIVEKTVSTGVLVDVIGALLEVGNLTEDYRGLKLPFKIMDQYKEVLQCEAHNDQALEFQRFFQRLTGPQNVIALVSWRLSGIYKLKTLSNDPISKVIANPDIPEVEEIRVVVY	failed
MIPGEILAVLVVVIPGVVNITYRLGIKKATIVGASADLVVAGLMYFLRPQTGFFYIQDSTMLFIIMVLSVYLLSAIYSTRYLKGIEVMGIREPTYYLLLNLFTASMLFSLEVNNYGLMWVGIEATTISSALLLITEKSETSLEATWRYIIIVSAGVTFAFISIILIYYTLGTLSVSTAIGSHVHSRIMVLAVSLALIGFGTKVGVFPVHTWLPDAHSEAPSPVSAMFSGVLLPTALYVLYRVYEIEPVRGLYVWFAVVSIVAASIFMGYQARYKRMFAYSTMENMNLALLGIAVGGSLGFTGALLLLLSHSFGKAGAFYSSGNILRFTGKKEIAEINGMHTSMPYTSTSLLMSSLAVTGAPPFGTFFGEFLILSGVLSLHMYVQFIIVIVFLAAAFISMNYNVTGMIFNGNCPNIEKDRLMPALSIFSSVIPLFIGIFFLVVYNEIL	failed
MIQLRPCPKSYTRDQDKATTPAETVRRVRERLASLDISILAETRRVDVGRLGIPVFLSVCGADARAVMPTRKQMGKGASLEQAQASALMELMERYSFFTFWRDMPGMVEATWSEARNRFGDALIPVDEILHSVHDTLSPDDAVRALDLWRWKFFPATDITHGREVWLPLDWFKKLGEFNGSSAGNTEEESILQGSCELVERHVCCLIDRTQPELPTIDPASLDDPVLLELAAAFERNGIRLVLKDFSMGMPVPTVGAIAWDPATFPERSEIVYTAGTSSSPVKAAIRAVTEVAQLAGDFCTGACYEASGLSKYESLDDIAWLVAGPVVALDTLPSVETDDIRDELAALCDGLAATGHTLYSVSTMNPDVGVNTHYNIVPGFHFRERDRNASLGLFIGRILSEEADAGTALAGLSVLEELYPGAHFLPFFKGMLALRAESHHEAISFFEQAEPLQPEADSRGLAAFYGAYVRTLLTDWQGALPGLDRAVTECPEMKEYFNLRGVCHFKLGDYAQAAQNFAQVLHIDKGAVVDLANLGLCHKFMGDTEKAEELLSAALEIDPGLDFARRHLDEMRQP	failed
MIQMSSNDSSEVIRQCLQVLESITSDSSVPRNIRRSVNEIMDILNNESEPLFLRAASSISILEDISNDPNLPLHTRTLIWNLSSQLETIPVDE	failed
MIQTFFDFPVYFKFFIGLFALVNPVGIIPVFISMTSYQTAAARNKTNLTANLSVAIILWISLFLGDTILQLFGISIDSFRIAGGILVVTIAMSMISGKLGEDKQNKQEKSETAVRESIGVVPLALPLMAGPGAISSTIVWGTRYHSISYLFGFFVAIALFALCCWGLFRMAPWLVRVLRQTGINVITRIMGLLLMALGIEFIVTGIKGIFPGLLN	failed
MIRAYKFLLRPTVRQAQALAEMLRDHCSLYNAALQERRDAWRHPSKTTVKYGGQSAQLKDIRAFDPERQGRWSFSSQQATLRRLDKAFAAFFRRVKSGETPGYPRFRGVNWFDTVDFPKDGDGCRWNSTPHDPATRVRLQGVGHVKVNQHRPVAGRVKTVSVKREGRKWFVVLTAEQDQPEPLPATGSAAGIDLGIANFLADSGGGFVPNPRHGRRAADKLQAAQQALARFPRRKAKDRTANHRRAVGKVAQLHGKVRRQRLDHAHKTALGLVRAHDFIAHEDLRIRNMSKAPAPKPDPDKPGTFLPNGAAAKAGLNKSINDAGWGVFLTILHAKAESAGREVIAVDPRDTSRTCPECGHTAKENRPTQEKFHCVACGHHAHADTVAATNVLRAGLVRRNANPA	failed
MIRDVNDNKKKKVDEILSIVKVSSLLFSAMAFLQYTFNLTKYNNKFLAYYSILSILISIFLLSTIYILWSLASLNKYKDHINKIQLIEIILFMIIFIMAILVSGGNSSNNKFLFLFIIITSTIQGGMHRGCVVSVVSSAIILAIDLIFSGNADVNIYFQNDLILAGVFVLTAWTLGFYVKTENDHIKELQTLVNEDGLTGVYNHRYFYDKLREKMHISEVENEKLSLIFMDIDYFKHYNDLYGHQKGDEALKKIGKLLKNIARENDLVARYGGEEFAIILPNTSEEEATKIAERIRNKVEKTYFEGQENQPNANFTVSVGIAVFPDKAKSELELVKCADDALYRAKFFHKNRVETYVSVLDELKRDLNEEENALVASIKTLISIINAKDKYTYSHVERVVIYSRLMAKKLGLSEDEKKQLIYGAYMHDIGKINIPNEILTKKMRLTKEEWEILKQHPKDGVEIIKSVNSLKNVVPLILYHHERYDGFGYPVGLKEKEIPYLARVLTVIDSFDAMTSSRPYNKRKTYDEGLIELERCSGTQFDPEIVGIFSEVVKENINEIQDF	failed
MIRERSINLGHQVEGAIFTRHNHIVSVDGDGILSFQNNITKVKPNEAIFIPSKVMVRFSFNSNENKSIKVSLYHINGINLNCKQDKVTSLINAYIEVEKLNLTNRETIIELIGSRLEKIKNNRVLYNYDPLEKKIYRLVSKDLKKKWSLEEVCKLTYTSKSTLNRKLKDNQTSMGQIISNARLDYATILITNTSLSVDEISMLSGFNSTSYFCKKFKESHGFSPKQYRKLLAYNQVPLNRI	failed
MIRHLLVAHDLTPEADVALARAAQLARQHDARVSLLHVYDPGLSASAVKTVSAMLQLKRKEAGLDEDSAIHLFRGQPIDGILQQTRALEPDLLLMGAHHQKTFERFGNTTLDQVVRRSRVPVLLAVREADEPYRQALSALDFSQCACTALRQAYRLLPVEADLHALHVFESPDDGVLGLPRQNAAHLATQAGLIEQLLSDEQERLPGVGPQLSHEVVPGVLPYSLDAALKQRQPELLALGRHSRNALMQALLGNLAQRYLRQPSCDVLVTS	failed
MIRHTVVFTLKHASHSLEEKRFLVDAKKILSAIRGVTHFEQLRQISPKIDYHFGFSMEFADQAAYTRYNDHPDHVAFVRDRWVPEVEKFLEIDYVPLGSVV	not failed
MIRIGNLYVYLKNYIMKFTKLTIAFLSVFFCLVVACGSDGINDDPKTPDVTEPVTPNEPDEPDNPSVVKVPTLQKNVQDEWKIDSIDDGFIYYNYERYDDVSKAQQIVNVLEIDLLSNKYKVEFTYNNGDSLSTTAQVRGAIGGINGGYEQEAIYIRINGTNISEVTLPEGHLRYWKHDGALYSDGKSDIGIIYGGRNGKAAIDTYKQHSAKYLLASAPTLIDDYNPLGETFVGNYTMEQLESFDYEDYRRHQGVRHPRTVVAVTEDKDLLLVTIDGRWAGKAEGMSAKEVTLFLKKHFNPQYALNMDGGGSTTMYVKGKGAAKTDVVNYPTDNGVFNHYGQRRVTTHIIVKRK	failed
MIRLILILINILFCHYLYALDCQKRLFDISINEKLSIQESLDELAKYCSFSIIVKDKIAKEKLETLQNSVNIHQMSLDEIFNFFIKEHDLSYDFDGKILRISGINTKIFKISYITSIREGQSITKASVDAKPRQSEYSGSFDDAEDNMIKSMEKFDFWQNIEKEIIVLLKNSHEDYEAKTPIINPNAGLIIVTGTNSQLKSVKNYLQKLENRLKKQVIIDVSILAVSLNESHSSGINWQNFNIGLNSQVNNENSFIQFQNGQGFVKNLGLRANLNFDSIINFLSQNGKTSVLSNPKLMALNNQQAIISVGDTINYQVKESSKGTENGTTVSESYNNYSIFVGILLNILPEISDDGKIMLRINPSLSDFKYPEDNKRQKEPRTIAPDTIQKKLSSVVQVENNQTLILGGLISHDKSNEKNSINFLSKIPILGSLFKGEVLNSKATEIVFIITPSIVDSVNAPSLKDLGFKHYELEHHHHHH	failed
MIRPARHIAAMSPYALAQLKAPAGKRLISLSQNESLRPPSRRAIEAAARAGDAGHLYPDPDWSALRAALSGLHGIPVEGILCGNGSMELIACLAQAFADERNAILAPAHGYPFFRSAAQMARARFDLAAERDRHVCVDAMLAAVQPDTRIVFVANPGNPTGTRIPRHELVRLREGLPDDTLLVIDEAYGEFADHLGEAMFDLVGRCDTVVLRTFSKAYGLAGMRVGWGLFPPEIARELRKVMNPNNIAVAGQLAATAALADQDYMVETCRQTAALRDGLRARLSKAGYDVPESFSNFVLIRMESPDDARRADEALRAEGVFLRPQGGVGLADSLRVTIGPAEKIDIAAGLLERWAEGKKT	failed
MIRQKSIRRVKPPEDYQARLATPFAVLGLRTDEDWLTDIEYLPPDTPTLVPQTPLAREVCDQLQAYLADPGFVFDLSLHIGGTVHQRRVWQAIQDIPAGATRSYAAIAVELHSAPRAVGQACGANRLPIVIPCHRVIAKSGGLGGFMNASDGLPLTIKRWLLQHEGI	failed
MIRQLSLKDYEGVAGSALIDEIRSLGESLQGYNVRHINSTIIGGGVAEILSSLVPLMEDVGLTVNWEVLAGTTEFFHTTKLFHNGMHGQPVNITGEMLENYLAIAQKNQNLLDGDADLVVIHDQQPLGLTAFRGRTRGRWLWYCHVDPRYAVPEVWYFLAPMVATCDAAVFHLPEYARDLEHHHHHH	failed
